Results taken from patent EP1918299A1 (UNIVERSITE DE GENEVE, dated 2008).

T1: Necl-1-GFP (human Necl-1 fused to GFP at its carboxy-terminus) (human, UniProt Q8N126 25-398)
T1 construct: Expressed in S2 cells; In lysate in the western blot; also called pMT-Necl-1-GFP; not shown: GFP of vector pEGFP-N1 (BD Biosciences Clontech), C-terminal fusion
T1 sequence: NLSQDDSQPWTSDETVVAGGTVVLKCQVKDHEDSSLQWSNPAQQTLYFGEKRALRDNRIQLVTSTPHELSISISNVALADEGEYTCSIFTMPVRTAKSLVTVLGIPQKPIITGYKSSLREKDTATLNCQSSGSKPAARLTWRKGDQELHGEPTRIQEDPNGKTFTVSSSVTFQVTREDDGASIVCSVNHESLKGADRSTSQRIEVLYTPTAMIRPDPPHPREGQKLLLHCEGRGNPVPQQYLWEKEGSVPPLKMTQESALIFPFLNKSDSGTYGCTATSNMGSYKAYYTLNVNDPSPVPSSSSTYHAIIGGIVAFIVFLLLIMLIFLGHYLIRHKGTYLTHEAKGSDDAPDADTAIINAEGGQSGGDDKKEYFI

T2: myc-tagged version of Necl-3 (pNecl-3-myc) (human, UniProt Q8N3J6 25-435)
T2 construct: On S2 cells in the aggregation assay; not shown: C-terminal myc-His tag of vector pcDNA3.1/myc-His
T2 sequence: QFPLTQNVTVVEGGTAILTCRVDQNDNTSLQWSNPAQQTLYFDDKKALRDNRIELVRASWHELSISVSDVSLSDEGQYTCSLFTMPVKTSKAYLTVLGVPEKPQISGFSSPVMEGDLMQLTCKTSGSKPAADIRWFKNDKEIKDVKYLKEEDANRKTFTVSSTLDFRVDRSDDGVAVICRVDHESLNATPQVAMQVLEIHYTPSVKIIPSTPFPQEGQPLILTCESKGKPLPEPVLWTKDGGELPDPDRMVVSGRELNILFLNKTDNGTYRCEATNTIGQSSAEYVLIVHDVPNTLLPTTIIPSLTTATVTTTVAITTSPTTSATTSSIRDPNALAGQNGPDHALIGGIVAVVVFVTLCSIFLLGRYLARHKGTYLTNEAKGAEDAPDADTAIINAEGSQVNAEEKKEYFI

B1: Necl-4-DsRed2 (human Necl-4 fused to DsRed2) (other)
chain: QEVQTENVTVAEGGVAEITCRLHQYDGSIVVIQNPARQTLFFNGTRALKDERFQLEEFSPRRVRIRLSDARLEDEGGYFCQLYTEDTHHQIATLTVLVAPENPVVEVREQAVEGGEVELSCLVPRSRPAATLRWYRDRKELKGVSSSQENGKVWSVASTVRFRVDRKDDGGIIICEAQNQALPSGHSKQTQYVLDVQYSPTARIHASQAVVREGDTLVLTCAVTGNPRPNQIRWNRGNESLPERAEAVGETLTLPGLVSADNGTYTCEASNKHGHARALYVLVVYDPGAVVEAQTSVPYAIVGGILALLVFLIICVLVGMVWCSVRQKGSYLTHEASGLDEQGEAREAFLNGSDGHKRKEEFFI
notes: On S2 cells; also called pMT-Necl-4-DsRed2; not shown: DsRed2 (Discosoma Red) of pMT-DsRed2, C-terminal fusion
B2: Necl-4-GFP (human Necl-4 fused to GFP at its carboxy-terminus) (other)
chain: B1 chain
notes: In lysate in the western blot; also called pMT-Necl-4-GFP; not shown: GFP of vector pEGFP-N1 (via pMT-GFP), C-terminal fusion
B3: Necl-2-GFP (human Necl-2 fused to GFP at its carboxy-terminus) (other)
chain: QNLFTKDVTVIEGEVATISCQVNKSDDSVIQLLNPNRQTIYFRDFRPLKDSRFQLLNFSSSELKVSLTNVSISDEGRYFCQLYTDPPQESYTTITVLVPPRNLMIDIQKDTAVEGEEIEVNCTAMASKPATTIRWFKGNTELKGKSEVEEWSDMYTVTSQLMLKVHKEDDGVPVICQVEHPAVTGNLQTQRYLEVQYKPQVHIQMTYPLQGLTREGDALELTCEAIGKPQPVMVTWVRVDDEMPQHAVLSGPNLFINNLNKTDNGTYRCEASNIVGKAHSDYMLYVYDPPTTIPPPTTTTTTTTTTTTTILTIITDSRAGEEGSIRAVDHAVIGGVVAVVVFAMLCLLIILGRYFARHKGTYFTHEAKGADDAADADTAIINAEGGQNNSEEKKEYFI
notes: Expressed in S2 cells; on cells in aggregation assays, in cell lysate in the western blot and the pull-down; also called pMT-Necl-2-GFP; not shown: GFP of vector pEGFP-N1 (BD Biosciences Clontech), C-terminal fusion
B4: Necl-3-GFP (human Necl-3 fused to GFP at its carboxy-terminus) (other)
chain: T2 sequence
notes: Expressed in Drosophila S2 cells; on cells in the aggregation assays, in crude cell lysate in the western blot; also called pMT-Necl-3-GFP; not shown: GFP of vector pEGFP-N1 (BD Biosciences Clontech), C-terminal fusion
B5: Necl-1-DsRed2 (human Necl-1 fused to DsRed2) (other)
chain: T1 sequence
notes: On S2 cells; also called pMT-Necl-1-DsRed2; not shown: DsRed2 (Discosoma Red) of vector pDsRed2-N1 (BD Biosciences Clontech), C-terminal fusion

Tests used:
Test in all cases: S2 cell aggregation assay
[1] = biological target: B3
[2] = biological target: T1, Necl-1-GFP (human Necl-1 fused to GFP …)
[3] = biological target: B4
[4] = biological target: the molecule itself
[5] = biological target: T2, myc-tagged version of Necl-3 …

binding result [3] | Binder | binding result [4] | also measured
binds | B1 | – | binding result [1]: binds; binding result [2]: binds
– | B2 | binds | –
– | B3 | – | binding result [5]: binds
– | B4 | binds | –
binds | B5 | – | –
